As a reminder, the EC50 is the concentration needed to bring the measured effect to its halfway point.

Assay [1] deals with T1, HER2 on the surface of N87 gastric cancer cells (human, UniProt P04626 23-1255). Nature of the assay: cell-based or functional assay.
In assay [2] the target is T1, HER2 on the surface of N87 gastric …. Nature of the assay: flow cytometry on N87 cells, 0.5 nM scFv detected with AL1-RFP. (In general: In flow cytometry, cells or beads pass a laser one at a time.)
Assay [3] addresses HER2 on the surface of N87 gastric cancer cells (human) (UniProt P04626). The assay is described as follows: cell-based or functional assay.
Assay [4] has the same target. The assay is described as follows: flow cytometry on N87 cells, 0.5 nM scFv detected with AL1-RFP.
Assay [5] deals with T2, HER2-ECD (recombinant extracellular domain of human epidermal growth factor receptor 2) (human, UniProt P04626 23-652).
T2 construct: extracellular domain; Recombinant HER2-ECD coated on ELISA plates
Nature of the assay: ELISA, IgG1 titrated on immobilized HER2-ECD. In general terms: In an ELISA, binding on a coated surface is turned into a signal by an enzyme label.

B1: 35WYK-9 source scFv (scFv)
chain: DIQMTQSPSSLSASVGDRVTITCKSNQNLLLSNGRTFLHWYQQKPGKAPKLLIFDVSNLYSGAPSRFSGSGSGTDFTLTISSLQPDDFATYYCSQTSRFPWTFGQGTKVEIKREVQLVESGGGLVQPGGSLRLSCKASGYTFSHWGMHWVRQAPGKGLEWVAGIYPYFGNTYYADSVKGRFTISADTSKNTAYLQMNSLRAEDTAVYYCARGLLDYWGQGTLVTVSSASAAA
On to B1, for which, in assay [1], the “% cell viability (AL1)” value stood at 84.7% and the “% cell viability (AL2)” value is 80.9%. For the same molecule, in assay [2], the MFI turned out to be 265.

B2: 30CHS-41 source scFv (scFv)
chain: DIQMTQSPSSLSASVGDRVTITCKSNQNLLDSGHQRTYLNWYQQKPGKAPKLLIYHTSLLYSGVPSRFSGSGSGTDFTLTISSLQPEDFATYYCSQTFRHPGTFGQGTKVEIKREVQLVESGGGLVQPGGSLRLSCKASGYTFTHWGMHWVRQAPGKGLEWVARINPYYGLTHYADSVKGRFTISADTSKNTAYLQMNSLRAEDTAVYYCARGHWLDYWGQGTLVTVSSASAAA
In the case of B2, in assay [1], the “% cell viability (AL1)” value turned out to be 77.6% and the “% cell viability (AL2)” value is 71.6%. In assay [2], the MFI stood at 153.

B3: 30CHS-12 source scFv (scFv)
chain: DIQMTQSPSSLSASVGDRVTITCKSNQNLLDSGNQGTFLNWYQQKPGKAPKLLIFGTSHLYSGVPSRFSGSGSGTDFTLTISSLQPEDFATYYCSQSTDLPFTFGQGTKVEIKREVQLVESGGGLVQPGGSLRLSCAASGFTISDYWIHWVRQAPGKGLEWVAGINPYYGVTVYADSVKGRFTISADTSKNTAYLQMNSLRAEDTAVYYCARGGVLDYWGQGTLVTVSSASAAA
As for B3, in assay [1], the “% cell viability (AL1)” value came out at 64.9% and the “% cell viability (AL2)” value came out at 61.7%. This molecule also registered an MFI in assay [2] of 198.

B4: 29TYL#10 source scFv (scFv, V domains shown, not shown: large carriers)
VH: EVQLVESGGGLVQPGGSLRLSCKASGYTFTDGSMHWVRQAPGKGLEWVAYINPYFGDTYYADSVKGRFTISADTSKNTAYLQMNSLRAEDTAVYYCARGWIDYWGQGTLVTVSS
VL: DIQMTQSPSSLSASVGDRVTITCKSNQNLLLSNGRTFLYWYQQKPGKAPKLLIYGTSYLYSGVPSRFSGSGSGTDFTLTISSLQPEDFATYYCFQANHLPWTFGQGTKVEIKR
modifications: VL-linker-VH scFv; linker and E-tag not given
B4: in assay [3], the % cell viability (AL1) is 79.9% and the % cell viability (AL2) came out at 64.8%. In assay [4], this molecule yielded an MFI of 444.

B5: 2835-28 source scFv (scFv, V domains shown, not shown: large carriers)
VH: EVQLVESGGGLVQPGGSLRLSCKASGYTFTDGSMHWVRQAPGKGLEWVAYINPYFGDTYYADSVKGRFTISADTSKNTAYLQMNSLRAEDTAVYYCARGWIDYWGQGTLVTVSS
VL: DIQMTQSPSSLSASVGDRVTITCKSNQNLLLSNGRTFLYWYQQKPGKAPKLLIYGTSYLYSGVPSRFSGSGSGTDFTLTISSLQPEDFATYYCFQANHLPWTFGQGTKVEIKR
modifications: VL-linker-VH scFv; linker and E-tag not given
In the case of B5, in assay [3], the % cell viability (AL1) turned out to be 52.8% and the % cell viability (AL2) is 29.9%. In assay [4], this molecule yielded an MFI of 495.

B6: 35CPT-9 source scFv (scFv)
chain: DIQMTQSPSSLSASVGGRVTITCKSNQNLLDSYGRTYLYWYQQKPGKAPKLLISGTSGLYSGVPSRFSGSGSGTDFTLTISSLQPEDFATYYCFQGYDYPFTFGQGTKVEIKREVQLVESGGGLVQPGGSLRLSCKASGYTFGDYGMHWVRQAPGKGLEWVAHIAPNDGITHYADSVKGRFTISADTSKNTAYLQMNSLRAEDTAVYYCARGYGWYDHVMDYWGQGTLVTVSSASAAA
On to B6, for which, in assay [1], the “% cell viability (AL1)” value came to 69.8% and the “% cell viability (AL2)” value was found to be 17.9%. Further, in assay [2], the MFI came out at 287.

B7: 29TYL#1 source scFv (scFv)
chain: DIQMTQSPSSLSASVGDRVTITCKSNQNLLLSNGWTFLNWYQQKPGKAPKLLISRISDLYSGVPSRFSGSGSGTDFTLTISSLQPEDFATYYCFQASDFPYTFGQGTKVEIKREVQLVESGGGLVQPGGSLRLSCKASGYTFSTGSMHWVRQAPGKGLEWVAHINPHFGLTLYADSVKGRFTISADTSKNTAYLQMNSLRAEDTAVYYCAGSGFDYWGQGTLVTVSSASAAA
As for B7, in assay [1], the “% cell viability (AL1)” value is 67.5% and the “% cell viability (AL2)” value amounted to 32.7%. Besides, the MFI in assay [2] is 491.

B8: 31YCM#3 IgG1 (antibody, V domains shown)
VH: EVQLVESGGGLVQPGGSLRLSCKASGYTFARSGMHWVRQAPGKGLEWVAGISPNYGLTHYADSVKGRFTISADTSKNTAYLQMNSLRAEDTAVYYCARGFGVLDYWGQGTLVTVSS
VL: DIQMTQSPSSLSASVGDRVTITCKSNQNLLISGNQWTFLNWYQQKPGKAPKLLIYDVSRLYSGVPSRFSGSGSGTDFTLTISSLQPEDFATYYCYQGSDFPGTFGQGTKVEIKR
Turning to B8, the concentration giving a half-maximal response (EC50) in assay [5] turned out to be 7.3 ng/mL.

B9: 31YCM#3 source scFv (scFv)
chain: DIQMTQSPSSLSASVGDRVTITCKSNQNLLISGNQWTFLNWYQQKPGKAPKLLIYDVSRLYSGVPSRFSGSGSGTDFTLTISSLQPEDFATYYCYQGSDFPGTFGQGTKVEIKREVQLVESGGGLVQPGGSLRLSCKASGYTFARSGMHWVRQAPGKGLEWVAGISPNYGLTHYADSVKGRFTISADTSKNTAYLQMNSLRAEDTAVYYCARGFGVLDYWGQGTLVTVSSASAAA
Consider B9, for which, in assay [1], the “% cell viability (AL1)” value came out at 96.4% and the “% cell viability (AL2)” value came to 91.5%. The MFI in assay [2] was found to be 177.

B10: 30CHS-13 source scFv (scFv)
chain: DIQMTQSPSSLSASVGDRVTITCKSNQNLLDSGNQRTYLNWYQQKPGKAPKLLIYHTSRLYSGVPSRFSGSGSGTDFTLTISSLQPEDFATYYCSQTFRHPGTFGQGTKVEIKREVQLVESGGGLVQPGGSLRLSCKASGYTFGHYSMFWVRQAPGKGLEWVASIYPHYGHTYYADSVKGRFTISADTSKNTAYLQMNSLRAEDTAVYYCARGHWLDYWGQGTLVTVSSASAAA
Regarding B10, in assay [1], the “% cell viability (AL1)” value came out at 75.8% and the “% cell viability (AL2)” value turned out to be 77.7%. This molecule also registered an MFI in assay [2] of 93.

B11: 31YCM#5 source scFv (scFv)
chain: DIQMTQSPSSLSASVGDRVTITCKSNQNLLDSHGWTYLHWYQQKPGKAPKLLIYDASNLYSGVPSRFSGSGSGTDFTLTISSLQPEDFATYYCSQSYRLPYTFGQGTKVEIKREVQLVESGGGLVQPGGSLRLSCKASGYTFGGSYMHWVRQAPGKGLEWVARIYPHYGYTYYADSVKGRFTISADTSKNTAYLQMNSLRAEDTAVYYCARGDDHFDYWGQGTLVTVSSASAAA
For the molecule B11, in assay [1], the “% cell viability (AL1)” value worked out at 89.5% and the “% cell viability (AL2)” value was 71.8%. In assay [2], this molecule yielded an MFI of 165.

B12: 35WYK-16 source scFv (scFv)
chain: DIQMTQSPSSLSASVGDRVTITCKSNQNLLLSNGRTFLYWYQQKPGKAPKLLIYDVSDLYSGVPSRFSGSGSGTDFTLTISSLQPEDFATYYCFQGNNFPYTFGQGTKVEIKREVQLVESGGGLVQPGGSLRLSCKASGYTFGTSWMHWVRQAPGKGLEWVAGITPYYGLTFYADSVKGRFTISADTSKNTAYLQMNSLRAEDTAVYYCARGNLDYWGQGTLVTVSSASAAA
With B12, in assay [1], the “% cell viability (AL1)” value worked out at 72.2% and the “% cell viability (AL2)” value stood at 41.4%. The same molecule gave an MFI in assay [2] of 299.
